Test results as given in paper PMC13342644, “Structural basis for transport and inhibition of nucleotide sugar transport in pathogenic fungi” (Nature Communications, 2026).

B1: nanobody NB4 (VHH)
VHH: QVQLVESGGGLVQAGGSLRLSCAASGRTFRSYTLGWFRQAPGKEREFVAAIKWSTDTTYYADSVKGRFTISGDNAKNTVYLQMNSLKPEDTAVYFCAARSLSTVIAGPEIPWPYNSWGQGTQVTVSS
notes: not shown: Myc, C-terminal, kept; His, C-terminal, kept
B2: nanobody NB3 (VHH)
VHH: QVQLVESGGGLVQPGGSLRLSCAASGSISEINVMGWYRQAPGKQRELVARITTGGSTNYADSVKGRFTISRDNAKNTVYLQMNSLKPEDTAVYMCNAHRRVVMEWGPLGYDYWGQGTQVTVSS
notes: as for B1
B3: NB1 (VHH)
VHH: QVQLVESGGGLVQPGGSLRLSCAASGTSFTINVMAWYRQAPGKQRELVAGITSGGTTNYADAVKGRFAITSDNAKNTVYLQMNGLKSEDTAVYYCNAATTVPYPDYGFSLGTYDYEAWGQGTQVTVSS
B4: NB2 (VHH)
VHH: QVQLVESGGGLVQPGGSLRLSCAASRIKRNIMSMGWYRQAPGKQRELVATLLRGGVTNYADSVKGRFTISRDNAKNTLYLQMNSLKPEDTAVYYCTLKEQMFDTTYWGQGTQVTVSS

Legend:
[1] = target: T1, Avi-tagged, biotinylated GDP-mannose transporter Vrg4 from Candida albicans (Candida albicans (SC5314 entry Q5A477), UniProt Q5A477); test: ELISA; settings: both partners purified
T1 construct: also called biotinylated CaVrg4; source: S. cerevisiae strain BJ5460, purified as the untagged version, biotinylated using BirA ligase; not shown: Avi tag, C-terminal, kept

[2] = target: GDP-mannose transporter Vrg4 from Candida albicans (Candida albicans, UniProt Q5A477)
GDP-mannose transporter Vrg4 from Candida albicans, sequence (Q5A477 34-371): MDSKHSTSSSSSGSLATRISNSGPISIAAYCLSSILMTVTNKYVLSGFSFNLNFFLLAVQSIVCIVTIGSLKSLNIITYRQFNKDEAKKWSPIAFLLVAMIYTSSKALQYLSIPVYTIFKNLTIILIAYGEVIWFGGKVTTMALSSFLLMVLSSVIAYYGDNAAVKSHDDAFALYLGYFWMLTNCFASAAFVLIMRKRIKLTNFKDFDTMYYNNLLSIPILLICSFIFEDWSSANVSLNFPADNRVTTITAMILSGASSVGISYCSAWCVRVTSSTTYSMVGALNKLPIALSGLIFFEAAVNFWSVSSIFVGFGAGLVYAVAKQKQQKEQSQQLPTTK

T1 sequence (Q5A477 34-371, one chain of several): as the sequence (Q5A477 34-371) above

Binder	Kd [1] [nM]	Kd [2] [nM]
B1	~10	
B2	~3	
B3		109
B4		125
